In this assay the target is adeno-associated virus serotype 3B (AAV-3B) capsid protein subunit (adeno-associated virus serotype 3B). Kind of assay: crystal structure.

In general, stoichiometry N refers to a count of units in the complex or per binding partner. “adeno-associated virus serotype 3B (AAV-3B) capsid protein subunit (natural protein)” returned a stoichiometry N of 60.

These data come from article PMC2885149.
